For assay [1], the target named is T1, (His)6-NLRP1 (NLR family, pyrin domain-containing 1), purified recombinant full-length protein from Sf21 cells (human) (UniProt Q9C000).
T1 sequence: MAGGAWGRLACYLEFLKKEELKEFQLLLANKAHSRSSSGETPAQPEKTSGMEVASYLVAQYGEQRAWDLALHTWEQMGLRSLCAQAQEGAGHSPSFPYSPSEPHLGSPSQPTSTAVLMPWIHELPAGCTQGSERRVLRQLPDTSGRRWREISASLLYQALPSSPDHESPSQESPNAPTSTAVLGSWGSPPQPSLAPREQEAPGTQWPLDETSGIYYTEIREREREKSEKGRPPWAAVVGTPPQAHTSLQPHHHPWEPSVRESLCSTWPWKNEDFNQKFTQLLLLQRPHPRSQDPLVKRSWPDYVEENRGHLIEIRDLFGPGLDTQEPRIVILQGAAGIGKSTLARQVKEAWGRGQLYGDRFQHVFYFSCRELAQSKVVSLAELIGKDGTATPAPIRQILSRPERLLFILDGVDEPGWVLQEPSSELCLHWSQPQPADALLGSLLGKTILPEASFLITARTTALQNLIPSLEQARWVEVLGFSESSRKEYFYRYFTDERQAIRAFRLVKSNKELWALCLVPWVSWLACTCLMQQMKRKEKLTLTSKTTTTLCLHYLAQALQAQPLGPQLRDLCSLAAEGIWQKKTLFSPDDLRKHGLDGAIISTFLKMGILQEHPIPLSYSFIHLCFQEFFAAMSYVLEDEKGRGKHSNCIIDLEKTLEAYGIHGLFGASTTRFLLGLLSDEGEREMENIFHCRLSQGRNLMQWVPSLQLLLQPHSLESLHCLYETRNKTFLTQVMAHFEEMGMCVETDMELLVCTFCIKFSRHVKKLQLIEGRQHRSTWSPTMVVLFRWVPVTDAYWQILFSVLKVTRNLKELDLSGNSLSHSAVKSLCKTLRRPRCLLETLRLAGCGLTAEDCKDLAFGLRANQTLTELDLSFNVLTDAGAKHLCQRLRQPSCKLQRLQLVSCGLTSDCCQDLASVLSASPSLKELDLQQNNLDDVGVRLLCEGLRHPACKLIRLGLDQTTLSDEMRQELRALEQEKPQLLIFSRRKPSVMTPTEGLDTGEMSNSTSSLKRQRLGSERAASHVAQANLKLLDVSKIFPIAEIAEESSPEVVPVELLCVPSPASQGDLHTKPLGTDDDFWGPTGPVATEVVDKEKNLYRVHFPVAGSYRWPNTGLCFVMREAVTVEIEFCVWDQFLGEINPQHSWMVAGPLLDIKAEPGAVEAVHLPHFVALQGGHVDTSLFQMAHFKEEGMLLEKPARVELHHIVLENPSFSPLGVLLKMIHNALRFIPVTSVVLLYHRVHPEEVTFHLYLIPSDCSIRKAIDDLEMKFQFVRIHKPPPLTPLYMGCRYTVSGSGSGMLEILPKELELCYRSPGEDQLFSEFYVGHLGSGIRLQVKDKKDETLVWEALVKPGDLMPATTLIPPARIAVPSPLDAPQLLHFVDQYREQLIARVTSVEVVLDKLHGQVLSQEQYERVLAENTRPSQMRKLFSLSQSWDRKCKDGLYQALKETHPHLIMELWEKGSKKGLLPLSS
Put plainly: cell-based or functional assay.

The target of assay [2] is T1, (His)6-NLRP1 (NLR family, pyrin domain-containing 1), purified recombinant full-length protein from Sf21 cells (human). Put plainly: enzyme kinetics of the reconstituted NLRP1 inflammasome (Caspase-1 activity on Ac-WEHD-AMC); Ki from the competitive inhibition equation.

With Bcl-2 Loop peptide 35-83 (synthetic), the IC50 (concentration to inhibit NLRP1-induced Caspase-1 activity by 50%) in assay [1] stood at 11.4 nM.

Take “GST-Bcl-2 (Bcl-2 lacking its C-terminal transmembrane domain, ~last 20 amino acids) (from UniProt P08515 1-218; P10415 1-218)”: in assay [1], the FITC-ATP binding to NLRP1 (FPA), reduction turned out to be 60%. In addition, the Ki in assay [2] was found to be 8.23 nM.

The values above are taken from patent US20100093623A1, “COMPOSITIONS AND METHODS FOR […]-LIKE RECEPTOR ACTIVITY AND USES THEREOF” (Burnham Institute for Medical Research, priority 2008, published 2010).
